Experimental data published in IntAct's records for PubMed 22575644.

B1: Serine/threonine-protein kinase STK11 (Homo sapiens), Q15831 (parent)
chain: MEVVDPQQLGMFTEGELMSVGMDTFIHRIDSTEVIYQPRRKRAKLIGKYLMGDLLGEGSYGKVKEVLDSETLCRRAVKILKKKKLRRIPNGEANVKKEIQLLRRLRHKNVIQLVDVLYNEEKQKMYMVMEYCVCGMQEMLDSVPEKRFPVCQAHGYFCQLIDGLEYLHSQGIVHKDIKPGNLLLTTGGTLKISDLGVAEALHPFAADDTCRTSQGSPAFQPPEIANGLDTFSGFKVDIWSAGVTLYNITTGLYPFEGDNIYKLFENIGKGSYAIPGDCGPPLSDLLKGMLEYEPAKRFSIRQIRQHSWFRKKHPPAEAPVPIPPSPDTKDRWRSMTVVPYLEDLHGADEDEDLFDIEDDIIYTQDFTVPGQVPEEEASHNGQRRGLPKAVCMNGTEAAQLSTKSRAEGRAPNPARKACSASSKIRRLSACKQQ
B2: 14-3-3 protein zeta/delta (Homo sapiens), P63104 (parent)
chain: MDKNELVQKAKLAEQAERYDDMAACMKSVTEQGAELSNEERNLLSVAYKNVVGARRSSWRVVSSIEQKTEGAEKKQQMAREYREKIETELRDICNDVLSLLEKFLIPNASQAESKVFYLKMKGDYYRYLAEVAAGDDKKGIVDQSQQAYQEAFEISKKEMQPTHPIRLGLALNFSVFYYEILNSPEKACSLAKTAFDEAIAELDTLSEESYKDSTLIMQLLRDNLTLWTSDTQGDEAEAGEGGEN
partner: B1 chain
B3: Serine/threonine-protein kinase STK11 (Homo sapiens), Q15831 (parent)
chain: B1 chain
partner: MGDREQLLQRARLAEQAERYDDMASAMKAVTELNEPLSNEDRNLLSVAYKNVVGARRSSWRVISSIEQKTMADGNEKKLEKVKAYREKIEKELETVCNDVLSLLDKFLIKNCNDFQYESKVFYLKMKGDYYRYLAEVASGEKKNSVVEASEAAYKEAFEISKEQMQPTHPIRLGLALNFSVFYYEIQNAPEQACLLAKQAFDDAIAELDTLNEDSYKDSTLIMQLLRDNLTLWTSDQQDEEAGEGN
B4: Serine/threonine-protein kinase STK11 (Homo sapiens), Q15831 (parent)
chain: B1 chain
partner: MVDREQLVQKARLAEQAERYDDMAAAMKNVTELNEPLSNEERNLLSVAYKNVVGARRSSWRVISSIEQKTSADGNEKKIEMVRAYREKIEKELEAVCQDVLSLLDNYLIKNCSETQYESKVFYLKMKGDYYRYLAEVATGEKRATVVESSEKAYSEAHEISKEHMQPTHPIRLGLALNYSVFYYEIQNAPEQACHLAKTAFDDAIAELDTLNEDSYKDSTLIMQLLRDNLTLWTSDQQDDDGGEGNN

Variants of: B1
Settings: with 1433z_human YWHAZ

Row | Variant | effect of a mutation on the interaction
1 | MEVVDPQQLGMFTEGELMSVGMDTFIHRIDSTEVIYQPRRKRAKLIGKYLMGDLLGEGSYGKVKEVLDSETLCRRAVKILKKKKLRRIPNGEANVKKEIQLLRRLRHKNVIQLVDVLYNEEKQKMYMVMEYCVCGMQEMLDSVPEKRFPVCQAHGYFCQLIDGLEYLHSQGIVHKDIKPGNLLLTTGGTLKISDLGVAEALHPFAADDTCRTSQGSPAFQPPEIANGLDTFSGFKVDIWSAGVTLYNITTGLYPFEGDNIYKLFENIGKGSYAIPGDCGPPLSDLLKGMLEYEPAKRFSIRQIRQHSWFRKKHPPAEAPVPIPPSPDTKDRWRSMAVVPYLEDLHGADEDEDLFDIEDDIIYTQDFTVPGQVPEEEASHNGQRRGLPKAVCMNGTEAAQLSTKSRAEGRAPNPARKACSASSKIRRLSACKQQ [T336A] | disrupting interaction

Variants of: B2
Settings: with stk11_human STK11, Q15831

Row | Variant | effect of a mutation on the interaction
2 | MDKNELVQKAKLAEQAERYDDMAACMKSVTEQGAELSNEERNLLSVAYENVVGARRSSWRVVSSIEQKTEGAEKKQQMAREYREKIETELRDICNDVLSLLEKFLIPNASQAESKVFYLKMKGDYYRYLAEVAAGDDKKGIVDQSQQAYQEAFEISKKEMQPTHPIRLGLALNFSVFYYEILNSPEKACSLAKTAFDEAIAELDTLSEESYKDSTLIMQLLRDNLTLWTSDTQGDEAEAGEGGEN [K49E] | disrupting interaction

Variants of: B3
Settings: with 1433f_human YWHAH

Row | Variant | effect of a mutation on the interaction
3 | MEVVDPQQLGMFTEGELMSVGMDTFIHRIDSTEVIYQPRRKRAKLIGKYLMGDLLGEGSYGKVKEVLDSETLCRRAVKILKKKKLRRIPNGEANVKKEIQLLRRLRHKNVIQLVDVLYNEEKQKMYMVMEYCVCGMQEMLDSVPEKRFPVCQAHGYFCQLIDGLEYLHSQGIVHKDIKPGNLLLTTGGTLKISDLGVAEALHPFAADDTCRTSQGSPAFQPPEIANGLDTFSGFKVDIWSAGVTLYNITTGLYPFEGDNIYKLFENIGKGSYAIPGDCGPPLSDLLKGMLEYEPAKRFSIRQIRQHSWFRKKHPPAEAPVPIPPSPDTKDRWRSMAVVPYLEDLHGADEDEDLFDIEDDIIYTQDFTVPGQVPEEEASHNGQRRGLPKAVCMNGTEAAQLSTKSRAEGRAPNPARKACSASSKIRRLSACKQQ [T336A] | disrupting interaction

Variants of: B4
Settings: with 1433g_human YWHAG

Row | Variant | effect of a mutation on the interaction
4 | MEVVDPQQLGMFTEGELMSVGMDTFIHRIDSTEVIYQPRRKRAKLIGKYLMGDLLGEGSYGKVKEVLDSETLCRRAVKILKKKKLRRIPNGEANVKKEIQLLRRLRHKNVIQLVDVLYNEEKQKMYMVMEYCVCGMQEMLDSVPEKRFPVCQAHGYFCQLIDGLEYLHSQGIVHKDIKPGNLLLTTGGTLKISDLGVAEALHPFAADDTCRTSQGSPAFQPPEIANGLDTFSGFKVDIWSAGVTLYNITTGLYPFEGDNIYKLFENIGKGSYAIPGDCGPPLSDLLKGMLEYEPAKRFSIRQIRQHSWFRKKHPPAEAPVPIPPSPDTKDRWRSMAVVPYLEDLHGADEDEDLFDIEDDIIYTQDFTVPGQVPEEEASHNGQRRGLPKAVCMNGTEAAQLSTKSRAEGRAPNPARKACSASSKIRRLSACKQQ [T336A] | disrupting interaction
